In series [1] the test system is GV2 Zα (giant virus Zα domain) (giant virus (metagenome)). As to the kind of experiment: MST. To be noted: 20 mM NaPi pH 6.4, 100 mM KCl, 1 mM DTT, 0.5 mM EDTA (LiCl replaces KCl where noted); ITC 35 C; MST 25 C with 20 nM protein (labelling without DTT; competition …).
Series [2] deals with T1, ADAR1 Zα (Homo sapiens, UniProt P55265 139-202).
T1 sequence: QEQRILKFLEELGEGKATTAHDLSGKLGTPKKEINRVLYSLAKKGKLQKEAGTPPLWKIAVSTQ
As to the kind of experiment: MST; 20 mM NaPi pH 6.4, 100 mM KCl, 1 mM DTT, 0.5 mM EDTA (LiCl replaces KCl where noted); ITC 35 C; MST 25 C with 20 nM protein (labelling without DTT); competition. To be noted: protein: recombinant, tags: N-terminal 6xHis, thrombin site, T7 tag.

In series [3] the target is T2, ADAR1 Zβ (Homo sapiens, UniProt P55265 291-366).
T2 sequence: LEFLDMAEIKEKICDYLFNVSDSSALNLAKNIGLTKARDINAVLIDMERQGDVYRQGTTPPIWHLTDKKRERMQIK
The series is described as above. Conditions: protein: recombinant; tags: N-terminal 6xHis, thrombin site, T7 tag; parallel G4.

The target in series [4] is T2, ADAR1 Zβ. As to the kind of experiment: ITC; 35 C; N=1.12; 20 mM NaPi pH 6.4, 100 mM KCl, 1 mM DTT, 0.5 mM EDTA (LiCl replaces KCl where noted); ITC 35 C; MST 25 C with 20 nM protein (labelling without DTT); competition. Conditions: protein: recombinant; tags: N-terminal 6xHis, thrombin site, T7 tag; parallel G4.
The target in series [5] is T1, ADAR1 Zα. As to the kind of experiment: ITC; 35 C; N=1.44; 20 mM NaPi pH 6.4, 100 mM KCl, 1 mM DTT, 0.5 mM EDTA (LiCl replaces KCl where noted); ITC 35 C; MST 25 C with 20 nM protein (labelling without DTT); competition. Conditions: protein: recombinant; tags: N-terminal 6xHis, thrombin site, T7 tag; chain copies: 2; parallel G4.
The target of another series is T3, ZBP1 Zα1 (Homo sapiens, UniProt Q9H171 1-70).
T3 sequence: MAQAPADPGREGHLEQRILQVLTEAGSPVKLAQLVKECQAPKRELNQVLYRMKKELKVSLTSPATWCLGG
As to the kind of experiment: NMR; significant peak disappearance; LLPS; 20 mM NaPi pH 6.4, 100 mM KCl, 1 mM DTT, 0.5 mM EDTA (LiCl replaces KCl where noted); ITC 35 C; MST 25 C with 20 nM protein (labelling without DTT); competition. To be noted: protein: recombinant; tags: N-terminal 6xHis, thrombin site, T7 tag; parallel G4.

Series [6] addresses T1, ADAR1 Zα. Kind of series: NMR; extensive peak shifts; 20 mM NaPi pH 6.4, 100 mM KCl, 1 mM DTT, 0.5 mM EDTA (LiCl replaces KCl where noted); ITC 35 C; MST 25 C with 20 nM protein (labelling without DTT); competition. Conditions: protein: recombinant; tags: N-terminal 6xHis, thrombin site, T7 tag; no G4; transient structure.
Series [7] deals with T2, ADAR1 Zβ. Kind of series: NMR; 100 µM RNA; large CSP increase; 20 mM NaPi pH 6.4, 100 mM KCl, 1 mM DTT, 0.5 mM EDTA (LiCl replaces KCl where noted); ITC 35 C; MST 25 C with 20 nM protein (labelling without DTT); competition. To be noted: protein: recombinant; tags: N-terminal 6xHis, thrombin site, T7 tag.
In series [8] the target is T1, ADAR1 Zα. As to the kind of experiment: NMR; 100 µM RNA; CSPs similar to ssUUAGGG; 20 mM NaPi pH 6.4, 100 mM KCl, 1 mM DTT, 0.5 mM EDTA (LiCl replaces KCl where noted); ITC 35 C; MST 25 C with 20 nM protein (labelling without DTT); competition. To be noted: protein: recombinant; tags: N-terminal 6xHis, thrombin site, T7 tag; chain copies: 2.
The target of series [9] is T1, ADAR1 Zα. As to the kind of experiment: NMR; 30 µM RNA; CSPs similar to UUACCG at 100 µM; 20 mM NaPi pH 6.4, 100 mM KCl, 1 mM DTT, 0.5 mM EDTA (LiCl replaces KCl where noted); ITC 35 C; MST 25 C with 20 nM protein (labelling without DTT); competition. Conditions: protein: recombinant; tags: N-terminal 6xHis, thrombin site, T7 tag; predominantly single strand at 30 µM.

In series [10] the target is T2, ADAR1 Zβ. As to the kind of experiment: MST; ligand-depletion range, may not be exact; 20 mM NaPi pH 6.4, 100 mM KCl, 1 mM DTT, 0.5 mM EDTA (LiCl replaces KCl where noted); ITC 35 C; MST 25 C with 20 nM protein (labelling without DTT); competition. To be noted: protein: recombinant; tags: N-terminal 6xHis, thrombin site, T7 tag; parallel G4.

In [1], GGGAGGGCGGGAGGG [ALU-GQRNA] registered a Kd of 1000 nM.

B1: ALU-GQRNA (structured_RNA)
RNA: GGGAGGGCGGGAGGG
With B1, the Kd turned out to be 116 ± 69.3 nM with ADAR1 Zα [2] (chain copies: 2, parallel G4); 336 ± 181 nM with ADAR1 Zβ [3]; 1810 ± 300 nM with ADAR1 Zβ [4]; 430 ± 100 nM in the series with ADAR1 Zα [5]. The binding result in the series with ZBP1 Zα1 is “binds”.

B2: ALU-mutRNA (ssRNA)
RNA: CCGACCGCCCGACCG
Turning to B2, in the series with ADAR1 Zα [6], the binding result is “binds”.

B3: GQ-UUAGGG 6-mer (100 µM) (structured_RNA)
RNA: UUAGGG
Take B3: the binding result in the series with ADAR1 Zβ [7] and with ADAR1 Zα [8] was “binds” throughout.

B4: ssUUAGGG 6-mer (30 µM) (ssRNA)
RNA: UUAGGG
B4: in the series with ADAR1 Zα [9], the binding result was “binds”.

B5: TERRA-GQRNA (structured_RNA)
RNA: UUAGGGUUAGGGUUAGGGUUAGGG
Take B5: the Kd was determined as 19.3 ± 13.7 nM with ADAR1 Zα [2] (chain copies: 2, parallel G4) and 4.2 ± 2.2 nM with ADAR1 Zβ [10].

B6: TERRA-mutRNA (ssRNA)
RNA: UUACCGUUACCGUUACCGUUACCG
Turning to B6, in the series with ADAR1 Zα [2] (no G4, transient structure), the Kd turned out to be 35.9 ± 8.9 nM.

The Kd is a measure of binding affinity in units of concentration.
